Consider three molecules from article PMC6128652, “Structure of the Cladosporium fulvum Avr4 effector in complex with (GlcNAc)6 reveals the ligand-binding mechanism and uncouples its intrinsic function from recognition by the Cf-4 resistance protein” (PLoS Pathogens, 2018).

Entries after “also recorded” stand apart in the source; their conditions may differ.

One series concerns subtilisin. In words: Subtilisin treatment (resistance against proteolytic degradation). Type of series: in vitro ADME. More on the design: key to Stability (Subtilisin assay): S: stable; PU: partially unstable. The conditions noted are these: for Stability (Subtilisin assay): 500 ng/μL subtilisin, 30 min, room temperature; for susceptibility to proteolytic degradation by subtilisin: 500 ng/μl subtilisin, band of mature CfAvr4 on SDS-PAGE. As to the method:
The WT-CfAvr4 and selected mutants thereof were exposed to the non-specific protease subtilisin in order to determine their resistance against proteolytic degradation. Treatments with subtilisin were made as previously described with minor modifications. Briefly, 40 μM of the E. coli-produced CfAvr4 and the selected CfAvr4 mutants were mixed with 10 mM of calcium chloride and 500 ng/μL of subtilisin (Sigma-Aldrich) in a total volume of 15 μL. Samples were incubated for 30 min at room temperature, after which period they were denatured by mixing with 10 mM PMSF and SDS-PAGE loading buffer, and heating at 98°C for 10 min. Digestion products were visualized on an SDS-PAGE after staining with Coomassie blue.

Series [1] has as its system germlings of Trichoderma viride. In words: In vitro protection assay of T. viride germlings against chitinases. It counts as cell-based. The conditions noted are these: 5 μM protein with chitinases and β-1,3-glucanases; for protection of fungal hyphae against chitinases, fungal growth: 6–8 h. As to the method: The ability of the WT-CfAvr4 and of ChBD mutants to protect against chitinases was evaluated in in vitro protection assays conducted as described before. Briefly, spores of T. viride (3∙10^3) were pre-germinated overnight at room temperature in 100 μl of half-strength PDB medium in 96 well plates. The following day, 5 μM of WT-CfAvr4 or ChBD mutants were mixed with 7.5 units of Zymolyase (Zymo Research cat. no. E1004) and 0.2 units of bacterial chitinases (Sigma-Aldrich cat. no. C6137) and the mixture was added to the microtitre plate wells containing the pre-germinated spores in a final volume of 150 μl. Plates were incubated at 25°C for 6–8 h before evaluating under the microscope fungal growth and the ability of the proteins to provide protection against chitinases. Zymolase has β-1,3 glucanase and β-1,3-glucan laminaripentaohydrolase activity and is added to the mixture in order to remove the surface glucans from the fungal cell wall and thus expose the underlying chitin layer.

Another series relates to Cf-4 immune receptor. The series is described as follows: Pure protein infiltrations into tomato leaves of cv Purdue 135 (+ Cf-4), hypersensitive response. Type of series: in vivo. The conditions noted are these: 5 dpi. From the text:
Tomato seeds were obtained from the Tomato Genetic Resource Center (TGRC) at UC Davis. WT-CfAvr4 and mutants thereof with single point mutations at selected amino acids were produced and purified from E. coli Rosetta-gami B cells as description above. […]

The subject of the next series is Cf-4. In words: Agrobacterium tumefaciens transient transformation assay (ATTA): co-expression with Cf-4 in Nicotiana benthamiana leaves. Type of series: in vivo. The conditions noted are these: N. benthamiana, three cell density ratios 0.5:1, 1:1, 2:1. On the procedure: The Agrobacterium tumefaciens transient transformation assay (ATTA) was used for the transient co-expression into leaves of Nicotiana benthamiana of Cf-4 with the WT-CfAvr4 and the mutants thereof tested in this study. Briefly, N. benthamiana plants were grown in a growth chamber with 16 h of artificial light and 70% humidity, at 25°C for 4 weeks. The true mature form of the WT-CfAvr4 (i.e. between Lys30-Gln115) and of the mutants thereof were singly cloned into the binary expression vector pICH47742 downstream of the PR1A signal sequence of Nicotiana tabacum for targeted secretion into the apoplast, and under the control of CaMV 35S promoter and NOS terminator. The tomato Cf-4 was cloned into pMOG800 as descripted before. Binary vector plasmids were transformed into A. tumefaciens strain GV3101 by electroporation. For the ATTA assay, agrobacteria transformed with pMOG800:Cf-4 was grown in 10mL LB-mannitol medium (LB medium with 10 g/L mannitol) amended with 50 μg/mL kanamycin and 25 μg/mL rifampicin, whereas agrobacteria transformed with pICH47742:WT-CfAvr4 or pICH4774:CfAvr4-mutants were grown in LB-mannitol amended with 100 μg/mL carbenicillin and 25 μg/mL rifampicin. All cultures were incubated at 28°C for 2 days, after which period they were pelleted at 2800g for 15 min, re-suspended in MMAi medium (5 g/L Murashige and Skoog basal salts, 20 g/L sucrose, 10 mM MES, and […]) at an optical cell density (A600) of 2.0, and further incubated for 2–4 h at room temperature. Agroinfiltrations were performed by mixing agrobacteria containing pMOG800:Cf-4 with agrobacteria containing pICH47742_WT-CfAvr4 or pICH47742:CfAvr4-mutants at three different ratios of optical cell densities, i.e. A6000.5:A6001.0, A6000.5:A6000.5, and A6000.5:A6000.25 of. The mixture of agrobacteria was infiltrated into the leaves of N. benthamiana plants using a 1 mL syringe and the induction of an HR in the infiltrated leaf sectors was evaluated at 5 days post-infiltrations. Control infiltrations were made using only the pMOG800:Cf-4 transformed agrobacteria and the agrobacteria containing pICH47742:CfAvr4 or the mutants thereof without mixing the two cultures, at cell densities of A6000.25, A6000.5, and A6001.0.

Series [2] is described as follows: Isothermal titration calorimetry (ITC) of CfAvr4 variants with chitin hexasaccharide. It counts as binding. As to conditions: ITC; for increase in the Kd relative to WT-CfAvr4: (GlcNAc)6. As to the method: A stock solution of the monomer of N-acetylglucosamine was prepared by dissolving the dry powder in a buffer containing 10 mM Bis-Tris, pH 6.5, 100 mM NaCl to a concentration of 0.100 g/L using analytic techniques. Standard solution of 0, 0.010, 0.025, 0.050, 0.075 g/L were prepared by serial dilutions. Using glass test tubes and pipets, 100 μL of each standard was mixed with 300μL of concentrated sulfuric acid and vortexed for 10 sec to mix. Solutions were incubated at RT for 10 min and then placed on ice to stop the reaction. […] Analytically prepared solution of the di- and tri-saccharide scaled linearly to the calibration curve. To determine the concentration of the chitin hexasaccharide solutions used in ITC, the solutions were diluted into the dynamic range of the calibration curve (S12 Fig) and subjected to the above procedure.
All ITC experiments were performed on a TA Instruments low volume NanoITC with a 186uL reaction cell and a reference cell filled with degassed Milli-Q grade water. Reactions were run in a buffer containing 10mM Bis-Tris, pH 6.5, 100 mM NaCl. The reservoir solution was filled with protein solution and continuously stirred while Chitin hexasaccharide solutions titrated in 2.5μL aliquots for 19 injections, with an initial 1μL injection, for a total injection volume of 48.5μL. The carbohydrate solutions were made by dissolving the dry powder in buffer to a concentration of 20mM (confirmed using methods described above) and then diluted to the working concentration using the final buffer exchange flow through to match the buffers as closely as possible. The integrated heats, after correction for the heat of dilution were analyzed using the NanoAnalyze software from […]. An individual binding site model was used to fit the binding isotherm. All experiments were replicated a minimum of three times.

B1: Q69N (protein)
chain: KAPKTQPYNPCKPQEVIDTKCMGPKDCLYPNPDSCTTYINCVPLDEVGNAKPVVKPCPKGLQWNDNVGKKWCDYPNLSTCPVKTPQ
modifications: left off: 6x His (two), N-terminal, state not stated
Take B1: in the series on subtilisin, the “Stability (Subtilisin assay)” value was “PU” and the “susceptibility to proteolytic degradation by subtilisin” value (“susceptibility” below) is “vulnerable to proteolytic degradation; also recorded: decreased intensity of this band”. Moreover, in series [1], the “morphology of hyphae after chitinase treatment” value is “signs of osmotic injuries such as swollen segments and coagulated cytoplasm; also recorded: signs of osmotic injuries, such as swollen segments and coagulated cytoplasm”; the “protection of fungal hyphae against chitinases, fungal growth” value (“protection of fungal hyphae” below) is on record as “enable fungal growth to levels comparable to those of the WT-CfAvr4”. Moreover, the “Cf-4-mediated HR after protein infiltration” value (shortened to “Cf-4-mediated HR”) with Cf-4 immune receptor (5 μg/ml) is given as “weak HR response”. In addition, the “Cf-4-mediated HR” value with Cf-4 immune receptor (10 μg/ml) was “elicited an HR”. The “Cf-4-mediated HR” value with Cf-4 immune receptor (both 5 μg/ml and 10 μg/ml) is “only partially trigger an HR”. Besides, the “HR on transient co-expression with Cf-4” value in the series with Cf-4 was “strong and similar in intensity HR”. Besides, the “increase in the Kd relative to WT-CfAvr4” value in series [2] is reported as ~ 20 fold.

B2: W100A (protein)
chain: KAPKTQPYNPCKPQEVIDTKCMGPKDCLYPNPDSCTTYIQCVPLDEVGNAKPVVKPCPKGLQWNDNVGKKACDYPNLSTCPVKTPQ
modifications: left off: 6x His (two), N-terminal, state not stated
For B2, in the series on subtilisin, the “Stability (Subtilisin assay)” value is listed as “S” and the “susceptibility” value was “as resilient to proteolysis as the WT-CfAvr4”. For the same molecule, the “protection of fungal hyphae” value in series [1] is listed as “essentially failed to protect the fungal hyphae against chitinases; also recorded: fail to protect the fungal hyphae”. For the same molecule, the “Cf-4-mediated HR” value with Cf-4 immune receptor (both 5 μg/ml and 10 μg/ml) is “strong and equal in intensity HR; also recorded: full HR; also recorded: strong and equally in intensity necrosis”. Moreover, in the series on Cf-4, the “HR on transient co-expression with Cf-4” value was “full HR; also recorded: strong and similar in intensity HR”. Besides, in series [2] (compared with WT-CfAvr4), the “effect of the mutation on binding to (GlcNAc)6” value is recorded as “abolished all detectable binding”.

B3: K84A (protein)
chain: KAPKTQPYNPCKPQEVIDTKCMGPKDCLYPNPDSCTTYIQCVPLDEVGNAKPVVAPCPKGLQWNDNVGKKWCDYPNLSTCPVKTPQ
modifications: left off: 6x His (two), N-terminal, state not stated
Take B3: in the series on subtilisin, the “Stability (Subtilisin assay)” value was “S” and the “susceptibility” value was “as resilient to proteolysis as the WT-CfAvr4”. In series [1], the “morphology of hyphae after chitinase treatment” value was “signs of osmotic injuries such as swollen segments and coagulated cytoplasm; also recorded: signs of osmotic injuries, such as swollen segments and coagulated cytoplasm”; the “protection of fungal hyphae” value is reported as “enable fungal growth to levels comparable to those of the WT-CfAvr4”. The “Cf-4-mediated HR” value with Cf-4 immune receptor (both 5 μg/ml and 10 μg/ml) was “strong and equal in intensity HR; also recorded: full HR; also recorded: strong and equally in intensity necrosis”. Besides, in the series with Cf-4, the “HR on transient co-expression with Cf-4” value was “full HR; also recorded: strong and similar in intensity HR”. Further, in series [2], the “increase in the Kd relative to WT-CfAvr4” value was ~ 20 fold.
